Measured values reported in paper PMC3465764.

Substrate: NC(=O)c1cnccn1
Experiment: steady-state enzyme kinetics
Format: biochemical, Acinetobacter baumannii

B1: AbPncA (Acinetobacter baumannii ATCC 19606 = CIP 70.34 = JCM 6841) (protein)
chain: MKMNKQPQNSALVVVDVQNGFTPGGNLAVADADTIIPTINQLAGCFENVVLTQDWHPDNHISFAANHPGKQPFETIELDYGSQVLWPKHCIQGTHDAEFHPDLNIPTAQLIIRKGFHAHIDSYSAFMEADHTTMTGLTGYLKERGIDTVYVVGIATDFCVAWTALDAVKQGFKTLVIEDACKGIDLNGSLEQAWQTMQQQGVVRIQSTDLLNEC
Km: 106.9 µM
